Experimental data reported in IntAct's records for PubMed 19737520.

B1: Trigger factor (Thermotoga maritima (strain ATCC 43589 / MSB8 / DSM 3109 / JCM 10099)), Q9WZF8 (parent)
chain: MEVKELERDKNRVVLEYVFGAEEIAQAEDKAVRYLNQRVEIPGFRKGRIPKNVLKMKLGEEFQEYTLDFLMDLIPDTLKDRKLILSPIVTERELKDVTARVVVEVHEEPEVRIGDISKIEVEKVDEEKVLEKYVERRIEDLRESHALLEPKEGPAEAGDLVRVNMEVYNEEGKKLTSREYEYVISEDEDRPFVKDLVGKKKGDVVEIEREYEGKKYTYKLEVEEVYKRTLPEIGDELAKSVNNEFETLEQLKESLKKEGKEIYDVEMKESMREQLLEKLPEIVEIEISDRTLEILVNEAINRLKREGRYEQIVSSYESEEKFREELKERILDDIKRDRVIEVLAQEKGISVNDEELEKEAEELAPFWGISPDRAKSLVKARQDLREELRWAILKRKVLDLLLQEVKVKVVEPKGEGDDSEGKEDN
partner: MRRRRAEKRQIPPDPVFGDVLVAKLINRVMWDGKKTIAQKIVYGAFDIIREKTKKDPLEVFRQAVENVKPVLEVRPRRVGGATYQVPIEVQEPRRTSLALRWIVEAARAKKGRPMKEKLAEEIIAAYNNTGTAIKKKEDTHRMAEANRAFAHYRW

Variants of: B1
Conditions: with rs7_thema rpsG

Variant | effect of a mutation on the interaction
E266R;E269R;E273R | disrupting interaction
